Reference: patent publication US11994512B2, “Single-cell genomic methods to generate ex vivo cell systems that recapitulate in vivo biology with improved fidelity” (Massachusetts Institute of Technology, priority 2018, dated 2024)

B1: Q9ERH4 (protein, UniProt Q9ERH4 1-427, looked up)
chain: MTVPSAEELDSFKYSDLQNLAKRLGLRANMKADKLLKALKAHLNPETRKENKNQDENQFSTDETEIHVSSEEQAETESGGHVTKTRRRRRKKHKTIHGIPTSQTLLQDHLEMKGTDSSNFQNQENQENQDPRDTAEVPSLPEQRPEDGNAASSGEGEVNDIKDSKKPLEKRSLCTDEFSKLGNNKRTSATTPNFKKLHEARFKKMESIDEYIMRKKKHLKEHSSLNELKLDKKGIVTPVPPRGRLSVPCTPARQQCPQGHSATKMNVRFSAATKDNEHKCSLTKTPARKSPHVTAPGSASKGQAVFRTPKSKATERTSIAVITPFKLMTEATQTPSSSKKPVFDLKASLSRPLNYKPHKGKLKPWGQAKENNSLNERVSRVTFHRKTYKQPHLQTREERWKRQEQERKEKKEKLLEARRNLGVTKAQ
modifications: full-length
B2: Q9JJ78 (protein, UniProt Q9JJ78 1-330, looked up)
chain: MEGINNFKTPNKSEKRKSVLCSTPCVNIPASPFMQKLGFGTGVSVYLMKRSPRGLSHSPWAVKKISLLCDDHYRTVYQKRLTDEAKILKNLNHPNIIGYRAFTEASDGSLCLAMEYGGEKSLNDLIEERNKDSGSPFPAAVILRVALHMARGLKYLHQEKKLLHGDIKSSNVVIKGDFETIKICDVGVSLPLDENMTVTDPEACYIGTEPWKPKEALEENGIITDKADVFAFGLTLWEMMTLCIPHVNLPDDDVDEDATFDESDFDDEAYYAALGTRPSINMEELDDSYQKAIELFCVCTNEDPKDRPSAAHIVEALELDGQCCGLSSKH
modifications: full-length
B3: Q9ERZ0 (protein, UniProt Q9ERZ0 1-503, looked up)
chain: MDMGKGRPRLKLPQMPEAHPQKSCAPDIIGSWSLRNREQLRKRKAEAQGRQTSQWLLGEQKKRKYQRTGKGNKRGRKRQGNVEQKAEPWSQTERERVQEVLVSAEEETEHPGNSATEALPLVPSPTKAVPADQCSEAHQESIQCQERAIQNHSQTHLSPTTCQGIAVLQHSPKMCQDMAEPEVFSPNMCQETAVPQTYPPKALEEMAAAEPLSPKMCQETTVSPNHSSKVPQDMAGPEALSPNMCQEPTVPQEHTLKMCHDVARPEVLSPKTHQEMAVPKAFPCVTPGDAAGLEGCAPKALPQSDVAEGCPLDTTPTSVTPEQTTSDPDLGMAVTEGFFSEARECTVSEGVSTKTHQEAVEPEFISHETYKEFTVPIVSSQKTIQESPEPEQYSPETCQPIPGPENYSLETCHEMSGPEDLSIKTCQDREEPKHSLPEGAQKVGGAQGQDADAQDSENAGAFSQDFTEMEEENKADQDPEAPASPQGSQETCPENGIYSSALF
modifications: full-length
B4: Q9JHT5 (protein, UniProt Q9JHT5 1-344, looked up)
chain: MAAGCCGVKKQKLSSSPPSGSGGGGGASSSSHCSGESQCRAGELGLGGAGTRLNGLGGLSGGGGSGGGGGCPLSPPQGCGGGGGGGGGGGSGSGGGGISLSPPLSCGVGTLLSTPAAATASSPSSSSSSPGSRKMVVSAEMCCFCFDVLYCHLYGYQQPRTPRFTNEPYPLFVTWKIGRDKRLRGCIGTFSAMNLHSGLREYTLTSALKDSRFPPMTRDELPRLFCSVSLLTNFEDVCDYLDWEVGVHGIRIEFINEKGSKRTATYLPEVAKEQGWDHIQTIDSLLRKGGYKAPITNEFRKTIKLTRYRSEKMTLSYAEYLAHRQHHHFQNGIGHPLPPYNHYS
modifications: full-length
B5: Q9JIB0 (protein, UniProt Q9JIB0 1-185, looked up)
chain: MEPNRNCPLFGGAFSAILPTGAIDVSDLRPVPDNQEVFCHPVTDQSLIIELLELQAHVQGEAAARYHFEDVGRVQGARAVHVLSVQPLCLENLSLRGCCQDAWSLSGKQQVAKENQQVAKDVTLHQALLRLPQYQTDLLLTFNQPPCHSRSLGPENLSCPPWSLSNFEQLVTSLTLHDPNLFGPQ
modifications: full-length
B6: Q9DCT8 (protein, UniProt Q9DCT8 1-208, looked up)
chain: MASKCPKCDKTVYFAEKVSSLGKDWHKFCLKCERCNKTLTPGGHAEHDGKPFCHKPCYATLFGPKGVNIGGAGSYIYEKPQTEAPQVTGPIEVPVVRTEERKTSGPPKGPSKASSVTTFTGEPNMCPRCNKRVYFAEKVTSLGKDWHRPCLRCERCSKTLTPGGHAEHDGQPYCHKPCYGILFGPKGVNTGAVGSYIYDKDPEGTVQP
modifications: full-length
B7: Q9JME5 (protein, UniProt Q9JME5 1-1082, looked up)
chain: MSAAPAYSEDKGGSAGPGEPEYGHDPASGGIFSSDYKRHDDLKEMLDTNKDSLKLEAMKRIVAMIARGKNASDLFPAVVKNVACKNIEVKKLVYVYLVRYAEEQQDLALLSISTFQRGLKDPNQLIRASALRVLSSIRVPIIVPIMMLAIKEAASDMSPYVRKTAAHAIPKLYSLDSDQKDQLIEVIEKLLADKTTLVAGSVVMAFEEVCPERIDLIHKNYRKLCNLLIDVEEWGQVVIISMLTRYARTQFLSPTQNESLLEENPEKAFYGSEEDEAKGPGSEEAATAALPARKPYVMDPDHRLLLRNTKPLLQSRSAAVVMAVAQLYFHLAPKAEVGVIAKALVRLLRSHSEVQYVVLQNVATMSIKRRGMFEPYLKSFYIRSTDPTQIKILKLEVLTNLANETNIPTVLREFQTYIRSMDKDFVAATIQAIGRCATNIGRVRDTCLNGLVQLLSNRDELVVAESVVVIKKLLQMQPAQHGEIIKHLAKLTDNIQVPMARASILWLIGEYCEHVPKIAPDVLRKMAKSFTAEEDIVKLQVINLAAKLYLTNSKQTKLLTQYVLSLAKYDQNYDIRDRARFTRQLIVPSEQGGALSRHAKKLFLAPKPAPILESSFKDRDHFQLGSLSHLLNAKATGYQELPDWPEEAPDPSVRNVEVPEWTKCSNREKRKEKEKPFYSDSEGESGPTESADSEPESESESESKSSSGSGSGESSSESDNEEEDEEKGGGSESEQSEEEDEKKKKTKKKKASEGHREGSSSEEGSDSSSSSESEVTSESEEEQVEPASWRKKTPPGSKSAPVAKEISLLDLEDFTPPSVQPVSPPMVVSTSLAADLEGLTLTDSSLVPSLLSPVSSIGRQELLHRVAGEGLSVDYAFSRQPFSGDPHMVSLHIYFSNNSETPIKGLHVGTPKLPAGISIQEFPEIESLAPGESTTTVMGINFCDSTQAANFQLCTQTRQFYVSIQPPVGELMAPVFMSENEFKKEQGKLTGMNEITEKLTLPDTCRSDHMVVQKVTATANLGRVPCGTSDEYRFAGRTLTSGSLVLLTLDARAAGAAQLTVNSEKMVIGTMLVKDVIQALTQ
modifications: full-length
B8: Q9EPC5 (protein, UniProt Q9EPC5 1-134, looked up)
chain: MPADLSGTWNLLSSDNFEGYMLALGIDFATRKIAKLLKPQKVIEQNGDSFTIQTCSSLRNYLVKFKVGEEFEEDNKGLDNRKCTSLVTWENDKLTCVQRGEKKNRGWSHWIEGDQLHLEMFCEGQVCKQTFQRA
modifications: full-length
B9: Q9JJK5 (protein, UniProt Q9JJK5 1-391, looked up)
chain: MEPEPQPEPVTLLVKSPNQRHRDLELSGDRSWSVSRLKAHLSRVYPERPRPEDQRLIYSGKLLLDHQCLQDLLPKQEKRHVLHLVCNVKNPSKMPETSTKGAESTEQPDNSNQTQHPGDSSSDGLRQREVLRNLSPSGWENISRPEAVQQTFQGLGPGFSGYTTYGWLQLSWFQQIYARQYYMQYLAATAASGTFVPTPSAQEIPVVSTPAPAPIHNQFPAENQPANQNAAAQAVVNPGANQNLRMNAQGGPLVEEDDEINRDWLDWTYSAATFSVFLSILYFYSSLSRFLMVMGATVVMYLHHVGWFPFRQRPVQNFPDDGGPRDAANQDPNNNLQGGMDPEMEDPNRLPPDREVLDPEHTSPSFMSTAWLVFKTFFASLLPEGPPALAN
modifications: full-length
B10: Q9DD24 (protein, UniProt Q9DD24 1-104, looked up)
chain: MKPCQKMEGNLEKEDEPKPEEEPKPEEKPEEGQEPEEEEKSEETFRERLIRSLQDFQEDIHNRHLSSDDLFRDVEELDEIRKVRNKLIVTRWKANRSHPYPYLM
modifications: full-length

test system: intracellular proteome of ENR+CD and ENR organoids; assay: LC-MS/MS TMT proteomics of ENR+CD versus ENR organoids; type: cell-based, C57BL/6 mice; details: ENR+CD versus ENR organoids, sample pairs in aggregate (n=4, 2 technical replicates from two biological donors)

B1 and B2 are within 0.2 log units of each other in “Average logFC” value: −1.264 for the first, −1.167 for the second.

Compared with B3, B4 is higher in “Average logFC” value: −1.361 for the first, 1.464 for the second.

First: B5
Second: B6
The “Average logFC” value of the first is lower: −1.426 for the first, 1.386 for the second.

Going from B7 to B8, the “Average logFC” value falls from −1.256 to −2.14.

B9 and B10 are within 0.2 log units of each other in “Average logFC” value: 1.444 for the first, 1.262 for the second.

same assay, conditions: protein abundance ratio ENR+CD versus ENR organoids, sample pair M1-1; LC-MS/MS TMT proteomics

B1 and B2 are within 0.2 log units of each other in “M1-1 Log2 Median Normalized” value: −1.354 for the first, −1.497 for the second.

First: B3
Second: B4
The “M1-1 Log2 Median Normalized” value of the first is lower: −1.833 for the first, 1.463 for the second.

First: B5
Second: B6
The “M1-1 Log2 Median Normalized” value of the first is lower: −1.2 for the first, 1.983 for the second.

Going from B7 to B8, the “M1-1 Log2 Median Normalized” value falls from −1.059 to −2.063.

Compared with B9, B10 is lower in “M1-1 Log2 Median Normalized” value: 1.863 for the first, 1.266 for the second.

same assay, conditions: protein abundance ratio ENR+CD versus ENR organoids, sample pair M1-2; LC-MS/MS TMT proteomics

B1 and B2 are within 0.2 log units of each other in “M1-2 Log2 Median Normalized” value: −0.911 for the first, −0.959 for the second.

Compared with B3, B4 is higher in “M1-2 Log2 Median Normalized” value: −1.41 for the first, 1.751 for the second.

Compared with B5, B6 is higher in “M1-2 Log2 Median Normalized” value: −1.555 for the first, 1.517 for the second.

Compared with B7, B8 is lower in “M1-2 Log2 Median Normalized” value: −1.31 for the first, −2.064 for the second.

Compared with B9, B10 is higher in “M1-2 Log2 Median Normalized” value: 0.766 for the first, 0.97 for the second.

same assay, conditions: protein abundance ratio ENR+CD versus ENR organoids, sample pair M2-1; LC-MS/MS TMT proteomics

Compared with B1, B2 is higher in “M2-1 Log2 Median Normalized” value: −1.2565 for the first, −0.7695 for the second.

First: B3
Second: B4
The “M2-1 Log2 Median Normalized” value of the first is lower: −1.0155 for the first, 1.5015 for the second.

Compared with B5, B6 is higher in “M2-1 Log2 Median Normalized” value: −1.6355 for the first, 0.9975 for the second.

Going from B7 to B8, the “M2-1 Log2 Median Normalized” value falls from −1.1945 to −2.2365.

Going from B9 to B10, the “M2-1 Log2 Median Normalized” value rises from 1.1435 to 1.6605.

same assay, conditions: protein abundance ratio ENR+CD versus ENR organoids, sample pair M2-2; LC-MS/MS TMT proteomics

B1 and B2 are within 0.2 log units of each other in “M2-2 Log2 Median Normalized” value: −1.536 for the first, −1.442 for the second.

First: B3
Second: B4
The “M2-2 Log2 Median Normalized” value of the first is lower: −1.185 for the first, 0.056 for the second.

Compared with B5, B6 is higher in “M2-2 Log2 Median Normalized” value: −1.315 for the first, 1.047 for the second.

Going from B7 to B8, the “M2-2 Log2 Median Normalized” value falls from −1.459 to −2.196.

Compared with B9, B10 is lower in “M2-2 Log2 Median Normalized” value: 2.005 for the first, 1.153 for the second.

same assay, conditions: up = enriched in ENR+CD, down = enriched in ENR; FDR<0.05 and log fold change cut-off

B1 was tested, and the change was “down”.
In the case of B2, the change is reported as “down”.
With B3 the change was “down”.
For B4, the change was “up”.
In the case of B5, the change is reported as “down”.
In the case of B6, the change is reported as “up”.
For B7, the change was “down”.
With B8 the change was “down”.
In the case of B9, the change is reported as “up”.
In the case of B10, the change is reported as “up”.
